Source: article PMC9468648, “Profiling of transcriptional regulators associated with starch biosynthesis in sorghum (Sorghum bicolor L.)”

Key:
Experiment in all cases: EMSA; Chemiluminescent EMSA Kit (Beyotime) per manufacturer's instructions; buffer, salt, pH and temperature not stated
Settings in all cases: protein: recombinant; tags: His (pET32a fusion); chain copies: 2; label: 5' biotin; blunt
[1] = biological target: T1, SORBI_3005G056300 (NAC TF) (UniProt C5Y5Q6 1-283)
T1 sequence: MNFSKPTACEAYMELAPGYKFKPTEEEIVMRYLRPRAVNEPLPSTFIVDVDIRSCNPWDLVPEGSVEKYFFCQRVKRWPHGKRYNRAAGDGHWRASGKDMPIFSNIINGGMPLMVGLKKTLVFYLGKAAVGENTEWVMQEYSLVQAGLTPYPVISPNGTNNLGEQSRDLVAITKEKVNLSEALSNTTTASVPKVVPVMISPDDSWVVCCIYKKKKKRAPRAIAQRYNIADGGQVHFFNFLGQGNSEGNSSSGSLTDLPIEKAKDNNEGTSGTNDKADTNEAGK

[2] = biological target: T2, SORBI_3003G105600 (NAC TF) (UniProt C5XF21 1-400)
T2 sequence: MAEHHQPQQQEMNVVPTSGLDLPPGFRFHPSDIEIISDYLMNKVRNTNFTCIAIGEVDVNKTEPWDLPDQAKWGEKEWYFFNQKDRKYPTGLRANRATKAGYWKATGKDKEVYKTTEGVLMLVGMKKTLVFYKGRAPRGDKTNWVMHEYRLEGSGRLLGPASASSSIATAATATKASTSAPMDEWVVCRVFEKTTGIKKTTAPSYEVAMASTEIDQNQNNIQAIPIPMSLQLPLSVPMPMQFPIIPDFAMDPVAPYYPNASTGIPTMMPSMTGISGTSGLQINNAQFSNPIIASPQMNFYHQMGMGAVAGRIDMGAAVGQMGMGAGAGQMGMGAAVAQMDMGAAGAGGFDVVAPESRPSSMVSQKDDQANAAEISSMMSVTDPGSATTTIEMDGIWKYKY

[3] = biological target: T3, SORBI_3009G086800 (NAC TF) (UniProt C5YV73 1-402)
T3 sequence: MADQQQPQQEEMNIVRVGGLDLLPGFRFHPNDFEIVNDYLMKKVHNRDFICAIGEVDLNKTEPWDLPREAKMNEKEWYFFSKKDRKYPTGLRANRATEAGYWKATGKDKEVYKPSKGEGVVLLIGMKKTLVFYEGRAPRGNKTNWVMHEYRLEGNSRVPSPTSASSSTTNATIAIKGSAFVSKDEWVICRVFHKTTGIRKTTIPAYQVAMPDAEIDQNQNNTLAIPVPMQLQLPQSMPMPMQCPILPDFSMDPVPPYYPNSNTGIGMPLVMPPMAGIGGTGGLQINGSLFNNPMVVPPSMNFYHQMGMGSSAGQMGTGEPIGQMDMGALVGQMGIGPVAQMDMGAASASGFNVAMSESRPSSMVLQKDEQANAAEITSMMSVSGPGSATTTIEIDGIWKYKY

Measured: binding result

B1: 4x CACGCAA repeat probe (dsDNA)
DNA 1: TCACGCAACACGCAACACGCAACACGCAAG
DNA 2: CTTGCGTGTTGCGTGTTGCGTGTTGCGTGA
binds: all assays above
